The record followed here is PMC314469, “Protein Interaction Networks by Proteome Peptide Scanning” (PLoS Biology, 2004).

T1: Boi2 SH3 (BOI2_YEAST), P39969
T1 chain: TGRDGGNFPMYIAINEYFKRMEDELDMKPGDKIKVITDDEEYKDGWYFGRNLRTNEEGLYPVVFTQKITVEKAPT

T2: Yhr016c SH3 (YSC84_YEAST), P32793
T2 chain: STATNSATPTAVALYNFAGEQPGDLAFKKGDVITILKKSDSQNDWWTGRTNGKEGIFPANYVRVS

T3: Yfr024 SH3 (LSB3_YEAST), P43603
T3 chain: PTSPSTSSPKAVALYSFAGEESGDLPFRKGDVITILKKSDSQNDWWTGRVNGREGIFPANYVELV

T4: Boi1 SH3 (BOI1_YEAST), P38041
T4 chain: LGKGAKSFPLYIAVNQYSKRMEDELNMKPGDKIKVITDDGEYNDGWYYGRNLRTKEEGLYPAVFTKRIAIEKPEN

T5: Rvs167 SH3 (RV167_YEAST), P39743
T5 chain: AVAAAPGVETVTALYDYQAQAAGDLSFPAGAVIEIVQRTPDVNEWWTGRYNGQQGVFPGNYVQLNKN

T6: Myo5 SH3 (MYO5_YEAST), Q04439
T6 chain: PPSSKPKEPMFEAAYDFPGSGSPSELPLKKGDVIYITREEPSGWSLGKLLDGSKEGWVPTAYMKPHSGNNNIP

T7: Abp1 SH3 (ABP1_YEAST), P15891
T7 chain: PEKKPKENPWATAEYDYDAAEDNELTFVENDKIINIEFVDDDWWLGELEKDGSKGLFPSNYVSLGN

One assay concerns the target T1, Boi2 SH3 (BOI2_YEAST), P39969. The assay can be described thus: SPOT array.
For LVGMRSFPLYPSGL [YDL068W 45-58], the normalised SPOT signal, Boehringer light units (BLU); mean over the file's lines of this peptide amounted to 325.
For the molecule RERPLEPPRKPMAS [YDR448W 142-155], the normalised SPOT signal, Boehringer light units (BLU); mean over the file's lines of this peptide was 41.1.

In a further assay the target is T2, Yhr016c SH3 (YSC84_YEAST), P32793. Briefly: SPOT array.
Turning to LVGMRSFPLYPSGL [YDL068W 45-58], the normalised SPOT signal, Boehringer light units (BLU); mean over the file's lines of this peptide was 330.
As to RERPLEPPRKPMAS [YDR448W 142-155], the normalised SPOT signal, Boehringer light units (BLU); mean over the file's lines of this peptide came to 1830.

For the next assay, the target named is T3, Yfr024 SH3 (LSB3_YEAST), P43603. Briefly: SPOT array.
In turn, LVGMRSFPLYPSGL [YDL068W 45-58] yielded a normalised SPOT signal, Boehringer light units (BLU); mean over the file's lines of this peptide of 1940.
Same read-out and setting: to RERPLEPPRKPMAS [YDR448W 142-155] belongs 13500.

The target in another assay is T4, Boi1 SH3 (BOI1_YEAST), P38041. The assay can be described thus: SPOT array.
LVGMRSFPLYPSGL [YDL068W 45-58]: the normalised SPOT signal, Boehringer light units (BLU); mean over the file's lines of this peptide was 512.
On the same count and under the same terms, to RERPLEPPRKPMAS [YDR448W 142-155] belongs 256.

The target in the next assay is T5, Rvs167 SH3 (RV167_YEAST), P39743. The assay can be described thus: SPOT array.
LVGMRSFPLYPSGL [YDL068W 45-58] registered a normalised SPOT signal, Boehringer light units (BLU); mean over the file's lines of this peptide of 387.
The same measure, in the same setting: to RERPLEPPRKPMAS [YDR448W 142-155] belongs 599.

The target of the next assay is T6, Myo5 SH3 (MYO5_YEAST), Q04439. Briefly: SPOT array.
As for MFTYFQEPPFPDLL [YPL063W 167-180], the normalised SPOT signal, Boehringer light units (BLU); mean over the file's lines of this peptide is 239.
On the same count and under the same terms, to NETKLKFPTLPEVP [YHR117W 470-483] belongs 255.
Still for that read-out and setting: under NFPSLIDPHVPTYG [YDL223C 906-919] stands 97.4.
NASAMPAPYMPYYY [YIR010W 139-152] displayed a normalised SPOT signal, Boehringer light units (BLU); mean over the file's lines of this peptide of 226.
The same measure, in the same setting: to MASGLLPPIQPGFD [YJR106W 230-243] belongs 223; to NEHGMNAPSVPEFI [YOR290C 25-38], 344; to LWILYMSPDVPSAS [YPL058C 1310-1323], 253.
The molecule LPTALLSPLRPSLS [YCL051W 199-212] returned a normalised SPOT signal, Boehringer light units (BLU); mean over the file's lines of this peptide of 115.
Still for that read-out and setting: under NAIAMALPNEPYPA [YLR342W 137-150] stands 96.8; under NFLKHYLPSSPGDI [YDL033C 241-254], 172.
On the same count and under the same terms, to NAIEMALPNDPYPA [YGR032W 156-169] belongs 87.2; to MLNEHGVPVVPSRE [YER014W 436-449], 199.
MASFLPVPEKPNLI [YNL206C 125-138] came in with a normalised SPOT signal, Boehringer light units (BLU); mean over the file's lines of this peptide of 161.
Same read-out and setting: to NASLLRDPSAPYAH [YER064C 198-211] belongs 134; to LWKPLVYPTSPSEH [YFR019W 1841-1854], 185; to NEIELLRPRSPVQK [YCL055W 320-333], 126.
On the same count and under the same terms, under MAKSFADPRVPQPM [YPR112C 91-104] stands 172; under NALKLIHPFMPFIS [YGR094W 895-908], 170; under LVGMRSFPLYPSGL [YDL068W 45-58], 386.
As to MFNLLQKPEQPHQN [YLR291C 121-134], the normalised SPOT signal, Boehringer light units (BLU); mean over the file's lines of this peptide was determined as 204.
For MEEPFIWPEEPRPD [YDR405W 164-177], the normalised SPOT signal, Boehringer light units (BLU); mean over the file's lines of this peptide was 79.7.
Still for that read-out and setting: to RERPLEPPRKPMAS [YDR448W 142-155] belongs 967; to NEFLHFDPHIPQPA [YNL223W 328-341], 156.
MLFSWPYPEAPIEG [YPL087W 1-14]: the normalised SPOT signal, Boehringer light units (BLU); mean over the file's lines of this peptide was 126.
Turning to LPTGYYEPMKPSSL [YLL016W 406-419], the normalised SPOT signal, Boehringer light units (BLU); mean over the file's lines of this peptide worked out at 165.
Same read-out and setting: to TELNLSSPNVPGKP [YKL216W 127-140] belongs 228; to NEKLHETPHLPSPV [YNL204C 272-285], 109.
The molecule MLKALFTPLIPVSF [YML068W 248-261] came in with a normalised SPOT signal, Boehringer light units (BLU); mean over the file's lines of this peptide of 257.
Still for that read-out and setting: to MFELLSHPKVPVGM [YHR197W 602-615] belongs 268.
Same read-out and setting: under NALGLDPPPSPEDP [YLR203C 42-55] stands 241.
Same read-out and setting: under MANILYYPQKPLGT [YOR151C 792-805] stands 152.
For NEDTFLPPPPPPPS [YHR165C 44-57], the normalised SPOT signal, Boehringer light units (BLU); mean over the file's lines of this peptide is 20400.
Same read-out and setting: under NEAPMLSPQRPYST [YLR006C 162-175] stands 111.
Still for that read-out and setting: under NEGDLYPPEQPGVD [YJL115W 157-170] stands 80.1.

A further assay concerns the target T7, Abp1 SH3 (ABP1_YEAST), P15891. Briefly: SPOT array.
As to TELNLSSPNVPGKP [YKL216W 127-140], the normalised SPOT signal, Boehringer light units (BLU); mean over the file's lines of this peptide was found to be 166.
